In the supplement of paper PMC10065799, “High-throughput profiling of sequence recognition by tyrosine kinases and SH2 domains using bacterial peptide display” (eLife, 2023):

What was measured:
[1] = biological target: Jak2 (UniProt O60674); experiment: phosphorylation enrichment, bacterial display (enrichment ratio); higher = better substrate or ligand; peptides without Tyr show the background
[2] = test system: c-Src; experiment: as above
[3] = test system: AncSZ; experiment: as above
[4] = biological target: Fyn (UniProt P06241); experiment: as above
Chain of Fyn (P06241 whole entry, looked up): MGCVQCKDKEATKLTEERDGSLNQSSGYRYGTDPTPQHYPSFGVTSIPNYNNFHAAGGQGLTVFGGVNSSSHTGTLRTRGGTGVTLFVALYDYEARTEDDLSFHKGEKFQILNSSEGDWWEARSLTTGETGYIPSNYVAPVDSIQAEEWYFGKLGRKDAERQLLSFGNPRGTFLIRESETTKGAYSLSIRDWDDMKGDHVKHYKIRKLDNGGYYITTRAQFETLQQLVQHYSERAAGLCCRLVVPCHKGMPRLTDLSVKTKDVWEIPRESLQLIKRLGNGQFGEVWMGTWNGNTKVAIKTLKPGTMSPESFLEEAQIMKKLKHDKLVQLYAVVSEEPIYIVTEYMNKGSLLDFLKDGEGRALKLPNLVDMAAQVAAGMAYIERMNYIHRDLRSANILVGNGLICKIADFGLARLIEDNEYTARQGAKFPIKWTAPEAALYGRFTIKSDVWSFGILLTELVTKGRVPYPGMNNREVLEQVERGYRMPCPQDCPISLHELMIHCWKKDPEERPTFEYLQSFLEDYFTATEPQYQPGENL

[5] = test system: Fer (mouse); experiment: as above
[6] = biological target: FGFR1 (UniProt P11362); experiment: as above
Chain of FGFR1 (P11362 whole entry, looked up): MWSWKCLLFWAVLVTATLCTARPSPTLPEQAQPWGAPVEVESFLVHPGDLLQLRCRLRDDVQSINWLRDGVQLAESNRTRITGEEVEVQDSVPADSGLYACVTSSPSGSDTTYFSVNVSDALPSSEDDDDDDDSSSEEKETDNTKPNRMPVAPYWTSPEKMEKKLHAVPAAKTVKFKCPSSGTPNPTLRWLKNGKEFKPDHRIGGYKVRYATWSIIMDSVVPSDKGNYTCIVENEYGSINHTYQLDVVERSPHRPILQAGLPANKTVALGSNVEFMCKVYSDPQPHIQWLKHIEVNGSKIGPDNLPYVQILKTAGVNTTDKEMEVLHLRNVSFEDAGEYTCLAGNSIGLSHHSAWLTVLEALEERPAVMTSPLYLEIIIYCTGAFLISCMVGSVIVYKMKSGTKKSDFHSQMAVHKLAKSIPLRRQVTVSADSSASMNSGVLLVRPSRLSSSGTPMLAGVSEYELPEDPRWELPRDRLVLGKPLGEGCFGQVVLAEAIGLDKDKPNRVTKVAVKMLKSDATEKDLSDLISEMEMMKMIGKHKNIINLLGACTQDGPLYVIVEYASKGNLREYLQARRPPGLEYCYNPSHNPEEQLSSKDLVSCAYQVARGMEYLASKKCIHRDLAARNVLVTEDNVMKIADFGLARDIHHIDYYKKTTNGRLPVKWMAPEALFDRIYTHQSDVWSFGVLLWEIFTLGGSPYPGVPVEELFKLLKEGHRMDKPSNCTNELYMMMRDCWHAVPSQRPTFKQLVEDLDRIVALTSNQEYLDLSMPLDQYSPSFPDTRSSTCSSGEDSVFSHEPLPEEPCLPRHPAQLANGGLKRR

[7] = biological target: EPHB2 (UniProt P29323); experiment: as above
[8] = biological target: MERTK (UniProt Q12866); experiment: as above
Chain of MERTK (Q12866 whole entry, looked up): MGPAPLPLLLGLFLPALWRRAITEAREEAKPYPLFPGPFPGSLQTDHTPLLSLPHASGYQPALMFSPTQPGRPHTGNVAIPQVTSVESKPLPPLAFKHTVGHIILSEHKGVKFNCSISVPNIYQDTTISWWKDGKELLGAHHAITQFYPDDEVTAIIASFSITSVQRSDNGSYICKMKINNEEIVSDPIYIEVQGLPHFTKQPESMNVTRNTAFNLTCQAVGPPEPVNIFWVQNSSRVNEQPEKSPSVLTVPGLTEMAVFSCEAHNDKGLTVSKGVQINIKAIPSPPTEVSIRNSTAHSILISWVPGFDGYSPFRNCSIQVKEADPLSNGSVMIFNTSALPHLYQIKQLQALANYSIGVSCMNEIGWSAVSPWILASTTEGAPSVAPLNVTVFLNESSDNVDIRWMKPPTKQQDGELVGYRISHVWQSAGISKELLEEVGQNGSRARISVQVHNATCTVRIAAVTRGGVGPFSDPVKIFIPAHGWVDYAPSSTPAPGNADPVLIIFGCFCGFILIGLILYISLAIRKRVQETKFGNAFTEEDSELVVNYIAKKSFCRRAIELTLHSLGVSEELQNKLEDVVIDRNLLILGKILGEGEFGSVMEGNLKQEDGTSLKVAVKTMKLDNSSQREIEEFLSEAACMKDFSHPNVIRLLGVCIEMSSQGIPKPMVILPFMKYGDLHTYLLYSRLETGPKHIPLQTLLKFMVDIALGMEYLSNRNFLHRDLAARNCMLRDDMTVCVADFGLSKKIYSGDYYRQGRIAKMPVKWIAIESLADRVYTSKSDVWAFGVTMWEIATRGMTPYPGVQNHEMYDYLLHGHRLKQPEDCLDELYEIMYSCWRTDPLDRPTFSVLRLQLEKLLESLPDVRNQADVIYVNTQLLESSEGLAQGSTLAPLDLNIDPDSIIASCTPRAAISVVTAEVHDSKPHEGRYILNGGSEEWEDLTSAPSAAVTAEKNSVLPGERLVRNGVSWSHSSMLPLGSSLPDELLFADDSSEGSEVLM

[9] = test system: c-Abl (mouse); experiment: as above
[10] = biological target: EPHB1 (UniProt P54762); experiment: as above
Chain of EPHB1 (P54762 whole entry, looked up): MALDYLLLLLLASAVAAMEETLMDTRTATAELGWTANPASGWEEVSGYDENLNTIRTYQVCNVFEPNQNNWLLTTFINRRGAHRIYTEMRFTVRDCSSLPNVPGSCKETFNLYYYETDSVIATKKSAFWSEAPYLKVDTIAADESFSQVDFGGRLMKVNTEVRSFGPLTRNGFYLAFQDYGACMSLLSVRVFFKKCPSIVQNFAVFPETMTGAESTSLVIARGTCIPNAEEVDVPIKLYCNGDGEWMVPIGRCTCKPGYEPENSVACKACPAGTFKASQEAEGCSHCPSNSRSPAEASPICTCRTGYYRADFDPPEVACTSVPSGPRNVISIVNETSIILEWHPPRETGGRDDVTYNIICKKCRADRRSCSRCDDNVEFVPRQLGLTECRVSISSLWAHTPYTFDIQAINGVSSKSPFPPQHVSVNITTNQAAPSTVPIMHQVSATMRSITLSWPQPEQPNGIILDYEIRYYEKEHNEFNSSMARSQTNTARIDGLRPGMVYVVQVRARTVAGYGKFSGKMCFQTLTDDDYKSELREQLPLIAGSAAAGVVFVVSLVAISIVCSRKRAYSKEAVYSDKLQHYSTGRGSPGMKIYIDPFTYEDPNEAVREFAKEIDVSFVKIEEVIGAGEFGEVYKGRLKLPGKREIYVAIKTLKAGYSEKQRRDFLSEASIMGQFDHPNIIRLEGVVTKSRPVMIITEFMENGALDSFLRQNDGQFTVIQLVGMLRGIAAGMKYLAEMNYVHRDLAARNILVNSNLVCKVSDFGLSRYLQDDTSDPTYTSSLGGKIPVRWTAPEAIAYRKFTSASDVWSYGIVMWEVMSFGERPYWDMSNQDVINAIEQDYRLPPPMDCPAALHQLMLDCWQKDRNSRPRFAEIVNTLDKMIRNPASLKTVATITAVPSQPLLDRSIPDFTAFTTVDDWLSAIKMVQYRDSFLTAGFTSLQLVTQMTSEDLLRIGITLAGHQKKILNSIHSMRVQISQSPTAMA

[11] = biological target: Hck (UniProt P08631); experiment: as above
Chain of Hck (P08631 whole entry, looked up): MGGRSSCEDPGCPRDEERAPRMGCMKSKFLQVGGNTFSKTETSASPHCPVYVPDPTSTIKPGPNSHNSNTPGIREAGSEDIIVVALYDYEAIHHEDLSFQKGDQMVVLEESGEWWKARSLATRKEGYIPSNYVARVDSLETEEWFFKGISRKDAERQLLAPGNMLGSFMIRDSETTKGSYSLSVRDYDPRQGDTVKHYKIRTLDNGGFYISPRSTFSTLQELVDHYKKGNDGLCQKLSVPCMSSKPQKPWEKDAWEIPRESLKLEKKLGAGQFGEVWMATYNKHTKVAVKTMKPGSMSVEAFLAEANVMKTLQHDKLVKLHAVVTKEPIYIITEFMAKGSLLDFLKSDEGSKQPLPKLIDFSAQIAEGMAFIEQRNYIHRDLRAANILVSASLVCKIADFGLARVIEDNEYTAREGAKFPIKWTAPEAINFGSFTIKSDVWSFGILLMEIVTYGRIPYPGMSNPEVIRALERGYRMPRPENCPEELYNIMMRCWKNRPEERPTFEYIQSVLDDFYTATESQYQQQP

[12] = biological target: FGFR3 (UniProt P22607); experiment: as above
[13] = biological target: Fes (UniProt P07332); experiment: as above
[14] = biological target: SHP2-C SH2; experiment: SH2 binding enrichment of the phosphorylated peptide, bacterial display (enrichment ratio); higher = better substrate or ligand; peptides without Tyr show the background
[15] = biological target: Grb2 SH2 (UniProt P62993); experiment: as above
[16] = biological target: c-Src SH2; experiment: as above
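For SH2 binding enrichment of the phosphorylated peptide, bacterial display in this document: peptide library displayed on the E. coli surface as eCPX fusions, selected cells deep-sequenced, score is each peptide's frequency after selection divided by its frequency in the input.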
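For phosphorylation enrichment, bacterial display in this document: 11-residue human phosphosite peptides and single-mutation variants displayed on the E. coli surface, counted by deep sequencing, each peptide's frequency after selection divided by its frequency in the unselected input library; frequency after pTyr selection over input frequency; kinase dosed for 20-30% of maximal phosphorylation in three min.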

Chain of Jak2 (O60674 whole entry, looked up): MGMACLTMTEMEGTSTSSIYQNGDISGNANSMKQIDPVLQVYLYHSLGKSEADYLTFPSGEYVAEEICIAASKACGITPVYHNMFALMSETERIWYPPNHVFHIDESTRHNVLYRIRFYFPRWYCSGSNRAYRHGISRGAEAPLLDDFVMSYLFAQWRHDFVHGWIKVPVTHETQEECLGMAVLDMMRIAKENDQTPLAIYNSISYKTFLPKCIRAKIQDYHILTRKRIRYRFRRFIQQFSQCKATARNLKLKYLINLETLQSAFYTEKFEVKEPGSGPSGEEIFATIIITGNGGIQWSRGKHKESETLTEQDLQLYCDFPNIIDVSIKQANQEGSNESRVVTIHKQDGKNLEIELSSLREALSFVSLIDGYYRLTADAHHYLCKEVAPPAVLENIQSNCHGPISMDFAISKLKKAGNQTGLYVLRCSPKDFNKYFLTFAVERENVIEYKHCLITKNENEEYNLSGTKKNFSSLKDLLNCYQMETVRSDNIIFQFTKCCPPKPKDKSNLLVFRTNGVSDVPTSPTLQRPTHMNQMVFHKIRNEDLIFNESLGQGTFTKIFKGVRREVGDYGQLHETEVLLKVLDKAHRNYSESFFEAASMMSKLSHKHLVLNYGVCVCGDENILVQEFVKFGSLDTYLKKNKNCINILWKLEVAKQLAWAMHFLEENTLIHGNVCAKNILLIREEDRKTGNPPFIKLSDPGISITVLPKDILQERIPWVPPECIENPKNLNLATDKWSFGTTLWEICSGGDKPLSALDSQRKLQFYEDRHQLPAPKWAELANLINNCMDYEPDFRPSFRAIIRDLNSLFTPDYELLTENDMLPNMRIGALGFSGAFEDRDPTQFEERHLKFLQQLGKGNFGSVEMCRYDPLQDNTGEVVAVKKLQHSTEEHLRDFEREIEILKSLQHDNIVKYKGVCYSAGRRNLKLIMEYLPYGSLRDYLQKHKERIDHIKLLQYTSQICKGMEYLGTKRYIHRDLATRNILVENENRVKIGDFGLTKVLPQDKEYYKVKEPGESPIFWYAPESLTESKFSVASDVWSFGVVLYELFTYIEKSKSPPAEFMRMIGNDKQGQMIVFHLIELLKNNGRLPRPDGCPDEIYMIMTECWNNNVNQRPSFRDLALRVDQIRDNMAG

Sequence | phosphorylation enrichment [1] | phosphorylation enrichment [2] | phosphorylation enrichment [3] | phosphorylation enrichment [4] | phosphorylation enrichment [5] | phosphorylation enrichment [6] | phosphorylation enrichment [7] | phosphorylation enrichment [8] | phosphorylation enrichment [9] | phosphorylation enrichment [10] | phosphorylation enrichment [11] | phosphorylation enrichment [12] | phosphorylation enrichment [13] | SH2 binding enrichment [14] | SH2 binding enrichment [15] | SH2 binding enrichment [16]
IATTIYSGDKI [UGGT2_Y823_A821T] | 0.701 | 0.748 | 0.638 | 0.591 | 0.41 | 0.57 | 0.557 | 0.507 | 0.778 | 0.576 | 0.791 | 0.493 | 0.752 | 0.695 | 0.893 | 0.516
IDAVCYFRMEN [NPHS2_Y194_I192V_YF] | 2.74 | 0.873 | 1.79 | 0.653 | 0.641 | 0.986 | 0.763 | 0.715 | 1.5 | 0.788 | 0.903 | 1.34 | 1.99 | 0.607 | 0.764 | 0.545
IDSTPYGQWFE [RPS8_Y109_R110G_YF] | 0.998 | 3.56 | 1.27 | 3.54 | 0.712 | 0.713 | 0.722 | 0.473 | 0.657 | 0.621 | 1.52 | 0.89 | 1.18 | 0.697 | 0.821 | 0.561
IEEGTYGVAYR [CDK11B_Y449_V452A] | 0.928 | 5.77 | 1.24 | 7.54 | 5.71 | 0.494 | 2.44 | 2.22 | 0.836 | 0.686 | 5.91 | 0.635 | 1 | 0.662 | 0.681 | 0.471
IEEGTYGVVFR [CDK11B_Y449_YF] | 1.38 | 5.94 | 1.41 | 8.86 | 6.28 | 0.548 | 7.66 | 3.13 | 1.2 | 2.76 | 7.46 | 0.961 | 1.48 | 0.467 | 0.722 | 0.349
IEEGTYGVVYR [CDK11B_Y449] | 0.902 | 5.65 | 1.33 | 8.95 | 7.46 | 0.509 | 10.8 | 4 | 1.3 | 4.1 | 7.29 | 0.702 | 1.01 | 0.668 | 0.834 | 0.451
IETGRYEILTE | 0.951 | 0.479 | 1.07 | 0.488 | 0.464 | 0.491 | 0.762 | 0.533 | 0.854 | 0.595 | 0.487 | 0.632 | 1 | 0.697 | 0.883 | 21.6
IFGEEYEEQPR [ZMYM2_Y1033_V1028I] | 1.16 | 0.591 | 1.47 | 0.535 | 0.721 | 0.611 | 0.647 | 0.451 | 0.662 | 0.663 | 0.608 | 0.849 | 1.28 | 0.77 | 0.819 | 0.561
IGEGTYGVLYK [CDK2_Y15_V18L] | 0.635 | 5.6 | 0.817 | 8.4 | 0.808 | 0.416 | 2.75 | 2.63 | 0.587 | 1.55 | 7.04 | 0.632 | 1.04 | 0.514 | 0.635 | 0.381
IGEGTYGVVFK [CDK2_Y15_YF] | 0.815 | 4.93 | 0.826 | 7.22 | 1.02 | 0.431 | 2.86 | 0.905 | 0.631 | 1.14 | 4.9 | 0.557 | 1.05 | 0.655 | 0.799 | 0.457
IGSQRYKLGVR [RB1_Y446] | 0.436 | 0.356 | 0.447 | 0.332 | 0.322 | 0.369 | 0.332 | 0.306 | 0.41 | 0.336 | 0.31 | 0.364 | 0.426 | 1.4 | 1.16 | 0.798
IIRYNYLLDVL [FGFR4_Y237_S232I] | 1.03 | 0.49 | 0.943 | 0.476 | 0.507 | 0.599 | 0.651 | 0.52 | 0.976 | 0.522 | 0.557 | 0.723 | 2.41 | 1.66 | 1.34 | 2.69
IKNSGYISQYL [EIF2AK3_Y585_R588Q] | 0.617 | 0.406 | 0.593 | 0.427 | 0.323 | 0.443 | 0.375 | 0.374 | 0.435 | 0.414 | 0.39 | 0.458 | 0.783 | 0.969 | 0.939 | 0.628
ILGLEYSLRLP [HELZ2_Y1304_V1308L] | 1.33 | 1.08 | 1.37 | 0.628 | 0.649 | 0.542 | 0.56 | 0.5 | 0.937 | 0.814 | 0.479 | 0.942 | 1.44 | 0.648 | 0.877 | 0.401
ILGRTYYVNHE [NEDD4_Y627] | 0.705 | 0.68 | 0.928 | 0.368 | 0.507 | 0.485 | 0.539 | 0.368 | 0.725 | 0.607 | 0.632 | 0.682 | 0.941 | 2.73 | 6.67 | 1.41
ILKPDYQPLAV [HYDIN_Y1072_I1077V] | 0.617 | 0.418 | 0.817 | 0.48 | 0.387 | 0.475 | 0.42 | 0.448 | 0.73 | 0.409 | 0.456 | 0.667 | 0.828 | 0.8 | 0.731 | 0.509
IMICAYLLHRG [PTEN_Y138_V133I] | 1.23 | 0.566 | 1.3 | 0.709 | 0.827 | 0.534 | 0.687 | 0.536 | 1.19 | 0.617 | 0.525 | 0.77 | 1.35 | 1.16 | 1.23 | 0.695
